Literature values as cited in patent US20170128542A1 (Albireo Pharma, Inc., priority 2015, published 2017).

Legend:
[1] = not given; remark: listed apart in the source

For glucagon, the “Onset of action after injection” value is listed as 5 to 20 min, the “Glucagon decomposed into degradation products” value ([1]; acidic solution (pH 2-4), within 24 hours at 37° C.) is listed as 5-70% and the “Aggregation in aqueous solutions of pH 3 or less” value ([1]; aqueous solution, pH 3 or less) is listed as “aggregate to form a gel within an hour”.
